In the supplement of paper PMC12042874:
± gives the uncertainty stated by the source.

assay: amyloid nucleation score (Sup35N fusion, yeast selection) (log enrichment); library NNK2; higher = more nucleation; inactive = no reads after selection
In short: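 Peptides of 20 random codons, each fused to Sup35N, were expressed in psi-negative yeast. Cells were induced with 100 μM copper sulfate for 24 hours and grown 7 days at 30°C on medium lacking adenine and uracil, and plasmid inserts before and after selection were Illumina-sequenced. Nucleation scores are DiMSum log enrichments of output over input reads, centred on the mode score of non-aggregating sequences, and sequences under 100 input reads were excluded.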

Row | Substance | amyloid nucleation score
1 | DYMTGV | inactive
2 | TMFLYSNAEDFF | inactive
3 | VCRNDRLVWCKLGVEFSGVA | 1.31 ± 0.26
4 | TQLIVMCHFVVHRRVKWRI | 0.786 ± 0.3
5 | AISVKKWSFHEKKRNTMLT | -0.027 ± 0.28
6 | WMLWANIDPGDAPYREASAG | 4.06 ± 0.05
7 | GMYNLSSGYRCERVGVAENI | -0.513 ± 0.3
8 | VSIYLG | 2.72 ± 0.15
9 | MRTIGGD | 0.348 ± 0.38
10 | RKGCWSL | 1.65 ± 0.34
11 | VMVDMGGWHEAWLVTSIRWS | 0.889 ± 0.3
12 | VNFNMALDNYFSNFEYRVRN | -1.17 ± 0.35
13 | CDKQRFSRF | inactive
14 | MGGQLLSNECLHSDSFVCFH | 1.21 ± 0.47
15 | DFSLSGCPGMNRGDYDLHSK | inactive
16 | NYCNDGVGCYS | 4.82 ± 0.067
17 | AFHRECPGSSVQDWFTWRGT | -0.36 ± 0.63
18 | YHVPSGTCATR | 0.912 ± 0.58
19 | NNMPFCNYEAFNFYNGMSAF | -1.55 ± 1.1
20 | WNTIYMSTFVIRDFAIYIKY | 7.53 ± 0.058
21 | YCGLVWVSKYSVTRAFRRNV | -0.297 ± 0.39
22 | DRVLTPNKGGKPRTLPHRDS | 1.19 ± 0.37
23 | WTLYKTMIMVSSVPFIIKIC | -1.2 ± 0.76
24 | AYSIFVFYTYVTTHLRHITR | inactive
25 | RLSWLLLKFNDQVWRLIGAG | 4.04 ± 0.054

Row | Substance | amyloid nucleation score
26 | NNTNIECSWWIYVWSRHNNR | 5.99 ± 0.061
27 | CRSFAFTLSNMYLMM | 6.52 ± 0.082
28 | MTIQSYGVILLLISVYWLSF | 0.584 ± 0.66
29 | HSVKCDSLGFLPFSTYWLRI | -0.047 ± 0.79
30 | MIRKVYYSF | -0.77 ± 1
31 | ERGSYLRESRYIVFFNLLIL | inactive
32 | GVDKGSVYG | inactive
33 | YFLALAYRAVPLLWYRPRGL | 0.751 ± 0.38
34 | YPNSLYFRPYAFILTEMSHH | inactive
35 | VRRYYDSKSSIAYMLSIRVD | -0.447 ± 0.27
36 | GLRTK | 0.622 ± 0.41
37 | TVVFYNNIIFGFDFSSAKWL | 6.21 ± 0.067
38 | CNRPGSGTHGRCTVMDSTMG | 0.389 ± 0.56
39 | SAQWGREMVISARHRVPVEL | 4.92 ± 0.079
40 | LCHTRCDRNSSCLL | -0.56 ± 0.79
41 | VTVTFIAEHSIWPSVNNCFV | 1.71 ± 0.15
42 | TGKFL | inactive
43 | WNYITVDISQLNLPGVAMGW | 3.45 ± 0.097
44 | TVFLTGRFCWVFPRSCYLSY | -0.758 ± 0.33
45 | LDIPNGNYVLMSYR | 0.32 ± 0.44
46 | TDITKVSGTFNHSMEPIWYT | inactive
47 | CFDKLAVMACKSSGWHNPPT | 0.75 ± 0.43
48 | YSSGF | -0.384 ± 0.39
49 | LHYTYVSDCVCRMDTLLFGL | -0.278 ± 0.45
50 | TRAFLIIRYVKLDTNFVI | 2.19 ± 0.064

Row | Substance | amyloid nucleation score
51 | YLQYPYCSSKSFARDDLVKY | 0.173 ± 0.79
52 | VSYDSNAILTFVNSYSRRRL | 1.48 ± 0.19
53 | SELRTAKPVN | 0.635 ± 0.26
54 | TWGQVII | -0.465 ± 1
55 | RCLPISTIVF | 2.43 ± 0.16
56 | QDCKAISSCLFRLLPELSLR | -0.92 ± 1.1
57 | FSVLMEDHSRFIF | inactive
58 | AVMWTK | 0.669 ± 0.52
59 | KYDGAFQRGGIIQISYLCLW | 4.87 ± 0.071
60 | LIYPANDANNSTR | -0.616 ± 0.64
61 | VGKRNLISMVGYPYD | -1.09 ± 0.39
62 | FVLSTVRLSAASAPMRFTHL | 0.468 ± 0.74
63 | VNTSFATFSSVSLEGLLSMV | -0.595 ± 0.3
64 | SFELFCVWGR | -0.827 ± 0.54
65 | HFSFTPFRTWV | -0.527 ± 0.27
66 | FESFLTLYIIYTGAANNSWV | 4.01 ± 0.087
67 | TVMGPVILTCVGIAVTSASS | 3.86 ± 0.1
68 | KFMVLITVRMIVIRPVSVRS | 0.647 ± 0.58
69 | ALFRD | 0.066 ± 1
70 | QLVMCGHEDQYIRSDRSERN | -0.112 ± 0.25
71 | MLRNWLCRY | 2.02 ± 0.42
72 | IPFASLNEFTSATY | 3.07 ± 0.1
73 | HGLEVVQMASSLELQARKKA | 0.049 ± 0.34
74 | RGRAFGPEIRNKSLGLTYPV | 0.282 ± 0.21
75 | QMQYFKATYSI | -0.613 ± 0.44

Row | Substance | amyloid nucleation score
76 | HMEKWCSSTMSRLLSVQLAK | 0.771 ± 0.29
77 | LMRFSDVDY | inactive
78 | CFLELYSWFKDAVTTFN | inactive
79 | SSFVIPSKR | -1.31 ± 0.78
80 | SMYVN | -0.384 ± 0.56
81 | LLLHSIQIYDMRR | 5.53 ± 0.089
82 | HCSFCVIVGFNRCDALGSHR | 7.03 ± 0.075
83 | VDVHIIIMKPDSWVCPNRCS | inactive
84 | MNWTSVHLDDWSRILIHTYC | inactive
85 | SIFKSIWDYLIYRSLVSHPH | -0.305 ± 1
86 | RSLTCLSVKGNLTHTINVCY | 6.08 ± 0.069
87 | QDDGM | -0.826 ± 0.41
88 | RRDHHMPPITPGCFRLYWRI | 0.237 ± 1
89 | ISNLQGFLLQNSDLAHSWVA | 1.28 ± 0.15
90 | ALCRGW | -0.689 ± 0.41
91 | SVSGIGWFGGEQHAWS | -0.531 ± 0.79
92 | FRIPRWFKTS | -0.284 ± 1.1
93 | VSLKFLQGGAKDLRWSCGGE | 1.78 ± 0.23
94 | GLGGTTFI | -1.04 ± 0.43
95 | CTNAGRFMTWSNFRYIG | 0.501 ± 0.8
96 | CCGLGELNLALLRELSWRVG | 1.34 ± 0.25
97 | RGDRSWGVRSCSRYDAAIAG | 1.71 ± 0.38
98 | DECCMWMVLPEGSPAQRPLG | 1.04 ± 0.34
99 | STVICSVYFDVVASFDIVYI | 1.39 ± 0.24
100 | VAGDLGGRSELLARIRSGHA | inactive

Row | Substance | amyloid nucleation score
101 | YGDSWLFCYVE | -1.12 ± 0.64
102 | KALFLCILMLSASAFQEECH | 4.47 ± 0.085
103 | NCLMLVGNIFWSEESPRLAM | 8.041 ± 0.068
104 | PSYMACSA | -0.187 ± 0.56
105 | GYSTRIGASFGLGPVGCSAR | 3.06 ± 0.087
106 | NYCMRGVASIG | -0.475 ± 0.45
107 | ILVEGET | -0.263 ± 0.33
108 | GSSVDNACQSDLPVQVSMKF | -0.478 ± 0.64
109 | LQFLLLE | 3.38 ± 0.047
110 | HLDGWRNFDYDIS | -2.3 ± 0.78
111 | WRRTTYYGRDRGQVLGNNAG | -0.009 ± 0.36
112 | FRLSHFILVSHYLNNYEDSF | inactive
113 | YFCPVPYLAPVLCRLFKVKL | -0.87 ± 1
114 | DWVFMRKCSPCWWYYIHLMS | -0.468 ± 0.64
115 | VNVEYSSMHKLCAW | 0.201 ± 0.46
116 | YMTWQFITACMLTCSKSILS | 0.264 ± 0.49
117 | AKDRTCRWLISKQSIPDSRA | 0.119 ± 0.27
118 | KVMVRLGSNSAAKYFYVNRV | 3.84 ± 0.057
119 | WRMGTPNIRMLC | -0.318 ± 0.38
120 | VVQFSNGDLLILTGCPNTSK | 0.449 ± 0.8
121 | ADRWYYMQPNTLCSNVTANA | 1.26 ± 0.37
122 | RWYSTRCTVEFINATSIVRA | -0.531 ± 1.1
123 | MSVKSEAGRRSLRMNSKTSR | 0.078 ± 0.22
124 | NWSGMPLPFLTFRKRFVEV | -0.998 ± 1
125 | AQNLGFHEMGLAKCCRVGLY | 0.233 ± 0.44

Row | Substance | amyloid nucleation score
126 | FLVIVTVNLMYESQRMGSPV | inactive
127 | PNERFVSTLWCRDVCDPWSW | 0.798 ± 0.51
128 | DFCWAFRAASLSRGVRLAAV | 3.23 ± 0.11
129 | YRVVKPCWLHFGDLIVWTWC | 0.351 ± 0.35
130 | GRFIHKIVLNDGV | 0.084 ± 0.56
131 | FLYMQTMLCNSKVFQVSALC | inactive
132 | YLWDTEDYMRMWAKRWEKAR | 0.259 ± 0.56
133 | FRSKPAFRVMGVVCRGFYFL | -0.637 ± 1.1
134 | KNWVYVAWRRENYEQPFIR | -0.299 ± 1
135 | LWVCSCSNALTNGLWGAVSL | 5.151 ± 0.036
136 | YDIVVNYLNHHQR | 4.88 ± 0.11
137 | RRIINFQGHREEYGEMHTVM | -0.449 ± 0.64
138 | ILIRLLTKVLTMLNDMH | 0.136 ± 0.65
139 | QFCSDCV | -0.9 ± 0.76
140 | VLVMLGGNSARVSCNWVM | 7.457 ± 0.031
141 | KVSHAWM | 0.704 ± 0.53
142 | NSAIVLHTSYIHFVFYSVFY | -0.403 ± 0.63
143 | MNFWMILVKSETYFNDRRPY | 7.152 ± 0.061
144 | SNFCFSTR | 0.328 ± 0.32
145 | YSCRGEVKLKCDTSVGGPRR | 0.922 ± 0.2
146 | IVYYG | 0.801 ± 0.38
147 | PLRVRNNGGTVDKFLLRVFE | 0.489 ± 0.4
148 | RWYYTRTF | -0.504 ± 1.1
149 | TVFKYLTFLGSIVFSTVPLV | 0.088 ± 0.56
150 | KSASRYNRQWNRHSYWMANR | -0.064 ± 0.34

Row | Substance | amyloid nucleation score
151 | DACAFVCLYWNVLTRFELMP | -0.458 ± 0.32
152 | KYFIASLDQFSYISVHNEVV | inactive
153 | VSSLMMVGNRFLIISWTESV | 2.55 ± 0.092
154 | YLSQWLSEWGVQRYVESYAR | 0.445 ± 0.29
155 | IVVQWMYVF | -0.382 ± 0.33
156 | VSEWFGTKGWRLDYLCLYWL | -1.03 ± 0.64
157 | MSTIEYSDGVEGRHILCLIA | 1.2 ± 0.35
158 | HNPSIAARCGGICYDNITVW | 0.838 ± 0.51
159 | SMCGSNAFLDTDRDVRHDDF | -1.05 ± 0.78
160 | LTSGNSMIVVS | 0.15 ± 0.18
161 | IQWYNLYTENRMISKLRGSW | -0.547 ± 1.1
162 | TFTVKCTDGGSCF | 1.01 ± 0.24
163 | NSIVWGIHGFVLTLVFFTCF | -0.849 ± 1
164 | SLGLGDVWGGQAYRSAGA | 0.2 ± 0.28
165 | IRYFR | 0.371 ± 0.13
166 | LRFYAFRLDALSLISKSGVQ | 1.08 ± 0.36
167 | NWVMVLGLGVCKSIWLLPMV | -0.572 ± 0.76
168 | RTTWPHLVGSRILFYTSHSM | -0.392 ± 0.63
169 | FMGVKRVVTRVVCLQIGQPT | 7.11 ± 0.071
170 | WSRFSCRT | 1.24 ± 0.2
171 | VAWITLMIPHIYFQSGILWD | -1 ± 0.25
172 | FVEITRG | -0.196 ± 1.1
